Results reported in IntAct's records for PubMed 35512704.

B1: Mothers against decapentaplegic homolog 4 (Homo sapiens), Q13485 (parent)
chain: MDNMSITNTPTSNDACLSIVHSLMCHRQGGESETFAKRAIESLVKKLKEKKDELDSLITAITTNGAHPSKCVTIQRTLDGRLQVAGRKGFPHVIYARLWRWPDLHKNELKHVKYCQYAFDLKCDSVCVNPYHYERVVSPGIDLSGLTLQSNAPSSMMVKDEYVHDFEGQPSLSTEGHSIQTIQHPPSNRASTETYSTPALLAPSESNATSTANFPNIPVASTSQPASILGGSHSEGLLQIASGPQPGQQQNGFTGQPATYHHNSTTTWTGSRTAPYTPNLPHHQNGHLQHHPPMPPHPGHYWPVHNELAFQPPISNHPAPEYWCSIAYFEMDVQVGETFKVPSSCPIVTVDGYVDPSGGDRFCLGQLSNVHRTEAIERARLHIGKGVQLECKGEGDVWVRCLSDHAVFVQSYYLDREAGRAPGDAVHKIYPSAYIKVFDLRQCHRQMQQQAATAQAAAAAQAAAVAGNIPGPGSVGGIAPAISLSAAAGIGVDDLRRLCILRMSFVKGWGPDYPRQSIKETPCWIEIHLHRALQLLDEVLHTMPIADPQPLD
partner: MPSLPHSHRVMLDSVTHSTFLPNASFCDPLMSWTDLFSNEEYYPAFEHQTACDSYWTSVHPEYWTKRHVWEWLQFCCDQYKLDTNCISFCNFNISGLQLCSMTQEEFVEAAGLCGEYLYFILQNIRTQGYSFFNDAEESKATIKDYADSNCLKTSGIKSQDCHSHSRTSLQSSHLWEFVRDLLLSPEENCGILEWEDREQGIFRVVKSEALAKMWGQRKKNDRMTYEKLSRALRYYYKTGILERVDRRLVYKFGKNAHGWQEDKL
B2: Mothers against decapentaplegic homolog 4 (Homo sapiens), Q13485 (parent)
chain: B1 chain
partner: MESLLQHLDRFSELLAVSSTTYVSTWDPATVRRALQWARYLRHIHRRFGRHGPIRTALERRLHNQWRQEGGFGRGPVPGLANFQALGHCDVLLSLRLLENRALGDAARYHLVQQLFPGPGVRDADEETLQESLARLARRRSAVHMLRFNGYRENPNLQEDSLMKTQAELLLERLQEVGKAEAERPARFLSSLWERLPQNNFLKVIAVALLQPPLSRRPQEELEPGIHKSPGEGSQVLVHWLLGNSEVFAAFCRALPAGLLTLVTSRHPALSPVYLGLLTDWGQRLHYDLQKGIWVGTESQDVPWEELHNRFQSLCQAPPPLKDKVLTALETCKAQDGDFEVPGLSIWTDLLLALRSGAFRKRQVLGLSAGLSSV
B3: Mothers against decapentaplegic homolog 4 (Homo sapiens), Q13485 (parent)
chain: B1 chain
partner: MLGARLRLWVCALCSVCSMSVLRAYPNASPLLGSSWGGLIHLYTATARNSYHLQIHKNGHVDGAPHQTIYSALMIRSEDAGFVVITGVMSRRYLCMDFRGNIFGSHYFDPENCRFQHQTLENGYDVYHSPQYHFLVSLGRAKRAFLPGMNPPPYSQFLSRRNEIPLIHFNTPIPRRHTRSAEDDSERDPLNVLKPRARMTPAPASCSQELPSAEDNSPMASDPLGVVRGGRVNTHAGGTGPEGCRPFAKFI
B4: Mothers against decapentaplegic homolog 4 (Homo sapiens), Q13485 (parent)
chain: B1 chain
partner: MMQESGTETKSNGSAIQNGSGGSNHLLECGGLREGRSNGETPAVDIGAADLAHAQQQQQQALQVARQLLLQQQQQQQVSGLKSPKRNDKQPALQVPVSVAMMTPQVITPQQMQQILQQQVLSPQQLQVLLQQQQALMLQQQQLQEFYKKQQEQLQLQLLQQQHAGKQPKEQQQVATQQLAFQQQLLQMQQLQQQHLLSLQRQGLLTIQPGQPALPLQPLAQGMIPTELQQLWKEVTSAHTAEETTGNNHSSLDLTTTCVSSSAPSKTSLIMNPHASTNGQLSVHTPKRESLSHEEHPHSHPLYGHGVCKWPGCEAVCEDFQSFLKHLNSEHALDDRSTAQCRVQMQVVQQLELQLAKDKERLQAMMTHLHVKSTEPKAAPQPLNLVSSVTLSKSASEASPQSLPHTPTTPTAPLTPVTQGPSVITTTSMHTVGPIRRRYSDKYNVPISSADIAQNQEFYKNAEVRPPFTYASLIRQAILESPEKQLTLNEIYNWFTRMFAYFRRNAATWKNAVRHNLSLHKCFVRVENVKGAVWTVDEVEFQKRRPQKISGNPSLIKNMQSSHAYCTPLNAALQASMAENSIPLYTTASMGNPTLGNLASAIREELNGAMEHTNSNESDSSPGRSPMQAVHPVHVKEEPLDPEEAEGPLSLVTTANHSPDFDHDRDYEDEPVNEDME
B5: Mothers against decapentaplegic homolog 4 (Homo sapiens), Q13485 (parent)
chain: B1 chain
partner: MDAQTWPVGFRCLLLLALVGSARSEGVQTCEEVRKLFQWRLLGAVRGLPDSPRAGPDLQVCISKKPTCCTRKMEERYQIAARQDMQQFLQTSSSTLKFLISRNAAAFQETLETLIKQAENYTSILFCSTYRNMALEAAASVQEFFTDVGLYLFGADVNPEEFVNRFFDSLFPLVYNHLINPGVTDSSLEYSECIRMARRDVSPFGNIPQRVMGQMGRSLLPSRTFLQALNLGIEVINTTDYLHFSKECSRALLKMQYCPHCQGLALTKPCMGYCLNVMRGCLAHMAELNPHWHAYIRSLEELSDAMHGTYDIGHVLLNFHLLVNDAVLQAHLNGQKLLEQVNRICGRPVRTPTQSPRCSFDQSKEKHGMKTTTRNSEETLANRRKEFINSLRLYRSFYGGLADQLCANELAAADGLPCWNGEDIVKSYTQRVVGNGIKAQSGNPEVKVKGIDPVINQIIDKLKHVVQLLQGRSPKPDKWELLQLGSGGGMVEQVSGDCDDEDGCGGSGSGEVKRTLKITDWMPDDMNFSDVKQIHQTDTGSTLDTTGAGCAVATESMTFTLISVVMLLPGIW
B6: Mothers against decapentaplegic homolog 4 (Homo sapiens), Q13485 (parent)
chain: B1 chain
partner: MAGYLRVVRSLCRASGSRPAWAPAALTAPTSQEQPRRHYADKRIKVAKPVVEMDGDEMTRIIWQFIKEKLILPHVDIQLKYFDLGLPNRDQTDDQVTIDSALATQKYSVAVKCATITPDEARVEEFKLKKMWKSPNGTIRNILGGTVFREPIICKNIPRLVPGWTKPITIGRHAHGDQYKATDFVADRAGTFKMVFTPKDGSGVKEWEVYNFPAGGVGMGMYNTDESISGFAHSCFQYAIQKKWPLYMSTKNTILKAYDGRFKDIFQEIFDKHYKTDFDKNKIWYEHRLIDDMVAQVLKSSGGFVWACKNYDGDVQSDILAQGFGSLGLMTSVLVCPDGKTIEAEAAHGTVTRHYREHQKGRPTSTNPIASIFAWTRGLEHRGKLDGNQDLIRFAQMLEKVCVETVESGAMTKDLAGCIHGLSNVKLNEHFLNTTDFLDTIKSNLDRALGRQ
B7: Mothers against decapentaplegic homolog 4 (Homo sapiens), Q13485 (parent)
chain: B1 chain
partner: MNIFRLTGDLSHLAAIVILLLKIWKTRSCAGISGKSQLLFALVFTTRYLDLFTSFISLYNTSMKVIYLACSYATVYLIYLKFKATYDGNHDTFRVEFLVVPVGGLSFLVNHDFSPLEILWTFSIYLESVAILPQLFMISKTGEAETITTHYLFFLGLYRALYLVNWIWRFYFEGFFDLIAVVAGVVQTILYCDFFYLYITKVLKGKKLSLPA

Variants of: B1
Conditions: with elf5_human ELF5, Q9UKW6

Row | Variant | effect of a mutation on the interaction
1 | R361H | with no effect

Variants of: B2
Conditions: with fancf_human FANCF

Row | Variant | effect of a mutation on the interaction
2 | G386D | with no effect

Variants of: B3
Conditions: with fgf23_human FGF23, Q9GZV9

Row | Variant | effect of a mutation on the interaction
3 | G386D | with no effect

Variants of: B3
Conditions: with fgf23_human FGF23, Q9GZV9
Remark: another data set of the same source

Row | Variant | effect of a mutation on the interaction
4 | G386D | increasing interaction strength

Variants of: B4
Conditions: with foxp1_human FOXP1, Q9H334

Row | Variant | effect of a mutation on the interaction
5 | G386D | with no effect

Variants of: B5
Conditions: with gpc5_human GPC5, P78333

Row | Variant | effect of a mutation on the interaction
6 | G386D | with no effect

Variants of: B5
Conditions: with gpc5_human GPC5, P78333
Remark: another data set of the same source

Row | Variant | effect of a mutation on the interaction
7 | G386D | increasing interaction strength

Variants of: B5
Conditions: with gpc5_human GPC5, P78333
Remark: another data set of the same source

Row | Variant | effect of a mutation on the interaction
8 | R361C | with no effect

Variants of: B5
Conditions: with gpc5_human GPC5, P78333
Remark: another data set of the same source

Row | Variant | effect of a mutation on the interaction
9 | R361H | with no effect

Variants of: B6
Conditions: with idhp_human IDH2, P48735

Row | Variant | effect of a mutation on the interaction
10 | G386D | with no effect

Variants of: B7
Conditions: with erd22_human KDELR2, P33947

Row | Variant | effect of a mutation on the interaction
11 | G386D | with no effect

Variants of: B7
Conditions: with erd22_human KDELR2, P33947
Remark: another data set of the same source

Row | Variant | effect of a mutation on the interaction
12 | R361C | with no effect
